Laboratory results as given in paper PMC3548793.
Where a chain is given by its changes, count along the chain named. Names and notes keep the numbering of the source.

T1: GFP-Sec13, P55735
T1 chain: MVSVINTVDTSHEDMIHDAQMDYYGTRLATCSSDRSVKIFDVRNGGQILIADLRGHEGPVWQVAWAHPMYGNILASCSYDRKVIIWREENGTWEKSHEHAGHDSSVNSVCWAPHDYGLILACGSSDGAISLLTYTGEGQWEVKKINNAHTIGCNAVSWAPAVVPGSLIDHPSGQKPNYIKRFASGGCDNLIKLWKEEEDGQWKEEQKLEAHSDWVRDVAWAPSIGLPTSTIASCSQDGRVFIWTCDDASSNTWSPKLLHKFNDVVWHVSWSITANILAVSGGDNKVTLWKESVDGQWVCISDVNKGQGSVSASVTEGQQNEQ

B1: FLAG-tagged wild type (WT) Sec31, O94979 S527A (protein)
chain: MKLKEVDRTAMQAWSPAQNHPIYLATGTSAQQLDATFSTNASLEIFELDLSDPSLDMKSCATFSSSHRYHKLIWGPYKMDSKGDVSGVLIAGGENGNIILYDPSKIIAGDKEVVIAQNDKHTGPVRALDVNIFQTNLVASGANESEIYIWDLNNFATPMTPGAKTQPPEDISCIAWNRQVQHILASASPSGRATVWDLRKNEPIIKVSDHSNRMHCSGLAWHPDVATQMVLASEDDRLPVIQMWDLRFASSPLRVLENHARGILAIAWSMADPELLLSCGKDAKILCSNPNTGEVLYELPTNTQWCFDIQWCPRNPAVLSAASFDGRISVYSIMGGSTDGLRQKQVDKLSSSFGNLDPFGTGQPLPPLQIPQQTAQHSIVLPLKKPPKWIRRPVGASFSFGGKLVTFENVRMPSHQGAEQQQQQHHVFISQVVTEKEFLSRSDQLQQAVQSQGFINYCQKKIDASQTEFEKNVWSFLKVNFEDDSRGKYLELLGYRKEDLGKKIALALNKVDGANVALKDSDQVAQADGEESPAAEEQLLGEHIKEEKEESEFLPSSGGTFNISVSGDIDGLITQALLTGNFESAVDLCLHDNRMADAIILAIAGGQELLARTQKKYFAKSQSKITRLITAVVMKNWKEIVESCDLKNWREALAAVLTYAKPDEFSALCDLLGTRLENEGDSLLQTQACLCYICAGNVEKLVACWTKAQDGSHPLSLQDLIEKVVILRKAVQLTQAMDTSTVGVLLAAKMSQYANLLAAQGSIAAALAFLPDNTNQPNIMQLRDRLCRAQGEPVAGHESPKIPYEKQQLPKGRPGPVAGHHQMPRVQTQQYYPHGENPPPPGFIMHGNVNPNAAGQLPTSPGHMHTQVPPYPQPQPYQPAQPYPFGTGGSAMYRPQQPVAPPTSNAYPNTPYISSASSYTGQSQLYAAQHQASSPTSSPATSFPPPPSSGASFQHGGPGAPPSSSAYALPPGTTGTLPAASELPASQRTGPQNGWNDPPALNRVPKKKKMPENFMPPVPITSPIMNPLGDPQSQMLQQQPSAPVPLSSQSSFPQPHLPGGQPFHGVQQPLGQTGMPPSFSKPNIEGAPGAPIGNTFQHVQSLPTKKITKKPIPDEHLILKTTFEDLIQRCLSSATDPQTKRKLDDASKRLEFLYDKLREQTLSPTITSGLHNIARSIETRNYSEGLTMHTHIVSTSNFSETSAFMPVLKVVLTQANKLGV
B2: FLAG-tagged wild type (WT) Sec31, O94979 S799A (protein)
chain: B1 chain with A527S, S799A
B3: FLAG-tagged wild type (WT) Sec31, O94979 S527A; S799A; T1165A (protein)
chain: B1 chain with S799A, T1165A
B4: FLAG-tagged wild type (WT) Sec31, O94979 S527A; S799A (protein)
chain: B1 chain with S799A

Target: T1, GFP-Sec13, P55735
Assay: co-immunoprecipitation and western blotting
Conditions: chain shown with the change;; parent: 0.8

| other: normalized ratio of co-IP'ed Sec31 | Binder |
| --- | --- |
| 1 | B1 |
| 1 | B2 |
| 1.4 | B3 |
| 1.2 | B4 |

The binders below were run against GFP-tagged Sec23, Q15436 (assay: co-immunoprecipitation (anti-GFP beads) and western blotting, mean of three experiments). Conditions: chain shown with the change; HEK293 cells co-transfected; parent: est. 1.0; read off a plot.
Sequence of GFP-tagged Sec23, Q15436 (Q15436 whole entry): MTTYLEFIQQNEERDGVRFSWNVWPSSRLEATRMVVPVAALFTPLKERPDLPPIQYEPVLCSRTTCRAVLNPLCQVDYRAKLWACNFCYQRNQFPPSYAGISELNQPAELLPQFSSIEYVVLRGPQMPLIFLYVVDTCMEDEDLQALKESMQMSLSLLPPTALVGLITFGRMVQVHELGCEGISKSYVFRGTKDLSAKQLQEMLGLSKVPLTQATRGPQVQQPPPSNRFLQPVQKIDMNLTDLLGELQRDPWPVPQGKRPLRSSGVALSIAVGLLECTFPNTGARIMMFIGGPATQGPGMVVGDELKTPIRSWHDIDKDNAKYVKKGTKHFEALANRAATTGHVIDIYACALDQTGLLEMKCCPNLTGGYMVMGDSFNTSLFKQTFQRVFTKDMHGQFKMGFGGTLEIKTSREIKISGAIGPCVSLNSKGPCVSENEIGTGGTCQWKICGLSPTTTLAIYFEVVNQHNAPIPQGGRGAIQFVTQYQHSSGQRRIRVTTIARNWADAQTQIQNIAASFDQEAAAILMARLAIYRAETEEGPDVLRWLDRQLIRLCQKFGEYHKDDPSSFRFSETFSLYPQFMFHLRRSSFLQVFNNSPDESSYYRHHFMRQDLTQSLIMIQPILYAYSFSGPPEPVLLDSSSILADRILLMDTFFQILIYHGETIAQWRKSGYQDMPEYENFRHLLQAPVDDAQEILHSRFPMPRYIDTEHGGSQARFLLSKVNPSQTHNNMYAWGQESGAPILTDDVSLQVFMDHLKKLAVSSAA

| ratio to parent | Binder |
| --- | --- |
| 0.9 | B1 |
| 1.5 | B2 |
| 2.3 | B3 |

The binders below were run against GFP-tagged Sec23, Q15436 (assay: co-immunoprecipitation (anti-GFP beads) and western blotting, single blot quantified). Conditions: chain shown with the change; HEK293 cells co-transfected; parent: 1.

| ratio to parent | Binder |
| --- | --- |
| 1 | B1 |
| 1.4 | B2 |
| 2.3 | B3 |
